Consider 1 molecule from publication PMC10954734, “Structure of antiviral drug bulevirtide bound to hepatitis B and D virus receptor protein NTCP” (Nature Communications, 2024).

For the assay, the target named is T1, complex of detergent-solubilized, biotinylated NTCP and BLV (Homo sapiens NTCP; bulevirtide from …).
T1 construct: also called NTCP-BLV complex; source: BLV: provided peptide; not shown: Avi-tag, C-terminal, kept; eYFP, C-terminal, cleaved; rho-1D4, C-terminal, cleaved
The assay is described as follows: ELISA; multipoint ELISA at 4 C; 40 nM biotinylated NTCP immobilised on a neutravidin-coated plate in the presence of BLV, serial dilutions of purified Fab for 20 min, detection with HRP-conjugated protein L; EC50 from a sigmoidal dose-response fit; apparent. The following applies: both partners purified. A general note: In an ELISA, binding on a coated surface is turned into a signal by an enzyme label.

B1: Fab3 (Fab, V domains shown)
VH: EVQLVESGGGLVQPGGSLRLSCAASGFNVSSSYIHWVRQAPGKGLEWVASISPYYSYTSYADSVKGRFTISADTSKNTAYLQMNSLRAEDTAVYYCARYQYDYYYSYYAGLDYWGQGTLVTVSS
VL: DIQMTQSPSSLSASVGDRVTITCRASQSVSSAVAWYQQKPGKAPKLLIYSASSLYSGVPSRFSGSRSGTDFTLTISSLQPEDFATYYCQQYRYSLITFGQGTKVEIK
notes: also called Fab specific to the NTCP-BLV complex
As for B1, the Kd was determined as 8 nM.
